Legend:
[1] = biological target: urea transporter ApUT from Actinobacillus pleuropneumoniae (Actinobacillus pleuropneumoniae); experiment: native gel or EMSA
[2] = biological target: urea transporter ApUT from Actinobacillus pleuropneumoniae (Actinobacillus pleuropneumoniae); experiment: cross-linking
[3] = biological target: urea transporter ApUT from Actinobacillus pleuropneumoniae (Actinobacillus pleuropneumoniae); experiment: electron microscopy of negatively stained 2D crystals

Measured: stoichiometry N

urea transporter ApUT from Actinobacillus pleuropneumoniae (from UniProt A0A2Z6AQW9 1-300) (natural protein)
2: [1] | [2] | [3]

From paper PMC2682783
